Legend:
light scattering = biological target: the molecule itself; test: light scattering
[1] = biological target: T1, ParB (Caulobacter crescentus centromere-binding protein), immobilized for SPR (C. crescentus, UniProt B8GW30 1-304); test: SPR
T1 sequence (looked up): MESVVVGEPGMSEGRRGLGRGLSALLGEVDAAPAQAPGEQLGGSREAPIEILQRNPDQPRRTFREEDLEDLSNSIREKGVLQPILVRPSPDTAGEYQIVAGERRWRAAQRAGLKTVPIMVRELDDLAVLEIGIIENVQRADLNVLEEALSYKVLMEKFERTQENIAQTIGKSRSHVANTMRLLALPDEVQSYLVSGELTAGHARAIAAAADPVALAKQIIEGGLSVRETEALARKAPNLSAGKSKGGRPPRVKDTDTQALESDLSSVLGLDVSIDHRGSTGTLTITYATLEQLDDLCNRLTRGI

[2] = biological target: T2, 6His–ParB (Caulobacter crescentus) (C. crescentus, UniProt B8GW30 1-304); test: SPR
T2 sequence (looked up): T1 sequence (looked up)

Measured: binding result

B1: ParA (Caulobacter crescentus ATPase ParA), purified (enzyme, C. crescentus, UniProt B8GW31 1-267, looked up)
chain: MSANPLRVLAIANQKGGVGKTTTAINLGTALAACGERVLLIDADPQGNCSTGLGIGRTQRRTTLYDVLMGEAPVVDAAVKTELPGLDVIPADADLSGVEIELGQTARRSYRLRDALEAIRANGPYTYVLIDCPPSLNVLTVNAMTAADAVFVPLQCEFFALEGLTQLMRTIERVRGSLNPRLEIQGVVLTMYDRRNSLSEQVAKDVRAHFGDKVYDAVIPRNVRVSEAPSFGKPVLLYDLKCAGSQAYLKLAREVISRERDRQAKAA
binds: light scattering | [1] | [2]

Reference: publication PMC3205914 (Nature cell biology, 2010)
